Test results from paper PMC3023227 (2010).
Where no end group is shown, it is not given here. [ ]: non-standard residue; d: D form. pY = N[C@@H](Cc1ccc(OP(=O)(O)O)cc1)C(=O)O

Molecular target: GAPDH (Oryctolagus cuniculus, UniProt P46406)
Experiment: fluorescence titration

Sequence of GAPDH (P46406 whole entry): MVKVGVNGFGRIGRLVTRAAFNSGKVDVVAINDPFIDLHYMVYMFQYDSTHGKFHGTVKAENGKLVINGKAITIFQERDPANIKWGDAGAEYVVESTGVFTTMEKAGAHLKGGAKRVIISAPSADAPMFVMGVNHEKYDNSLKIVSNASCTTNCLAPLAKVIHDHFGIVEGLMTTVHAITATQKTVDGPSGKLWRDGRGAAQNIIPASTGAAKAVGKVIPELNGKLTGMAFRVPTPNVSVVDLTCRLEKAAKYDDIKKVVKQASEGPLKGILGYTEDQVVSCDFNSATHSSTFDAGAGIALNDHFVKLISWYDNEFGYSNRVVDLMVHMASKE

Row | Binder | Kd [nM]
1 | LIFRNVELQCLDADDAKATFDEEEGRDEYDEVAMPV [AE1 C-terminal domain (AE1C-WT) 876-911] | 2300
2 | CLDADDAKATFDEEEGRDE[pY]DEVAMPV [AE1 C-terminal peptide AE1C-pY904] | 2600
3 | CLDADDAKATFDEEEGRDEYDEVAMPV [AE1 C-terminal peptide AE1C-Y904] | 3200
